{
  "source": "paper PMC4388654",
  "about": "“A Humanized Leucine Zipper-TRAIL Hybrid Induces Apoptosis of Tumors both In Vitro and In Vivo” (PLoS ONE, 2015)",
  "proteins": {"B1": {"name": "ATF7-pII leucine zipper-TRAIL (ligand, human)", "chain": "VSSIEKKIEEITSQIIQISNEITLIRNEIAQIKQKGSGQRVAAHITGTRGRSNTLSSPNSKNEKALGRKINSWESSRSGHSFLSNLHLRNGELVIHEKGFYYIYSQTYFRFQEEIKENTKNDKQMVQYIYKYTSYPDPILLMKSARNSCWSKDAEYGLYSIYQGGIFELKENDRIFVSVTNEHLIDMDHEASFFGAFLVG", "notes": "linker between the leucine zipper and TRAIL; Tumor necrosis factor-Related Apoptosis-Inducing Ligand (TRAIL), human, Gln120-Gly281; No tag is stated; the calculated trimer mass of 69.0 kDa fits zipper + linker + TRAIL 120-281 without a tag; also called ATF7-TRAIL; ATF7 leucine zipper-TRAIL; source: P. pastoris (pGAPZα), secreted, purified (Co2+-metal chelating chromatography, 0 to 25 mM imidazole …)"}},
  "molecular_target": "the molecule itself",
  "assay": "AUC; sedimentation equilibrium; 0.5, 0.17 and 0.06 mg/ml in PBS, 20°C, 18,000 rpm, 24 h; Monomer-Nmer model (HeteroAnalysis); monomer to trimer",
  "data": [
    {"protein": "B1", "values": [
      {"measurement": "stoichiometry N", "result": 3}
    ]}
  ]
}
